The target of experiment [1] is mouse mitochondrial RNA polymerase (Polrmt), wild type (mouse, UniProt Q8BKF1 42-1207). Nature of the experiment: MST.
For experiment [2], the target named is mouse Δ320-Polrmt (N-terminal truncation mutant lacking the amino-terminal 320 amino acids) (mouse, UniProt Q8BKF1 321-1207). In words: MST.

One may read the Kd as a measure of binding affinity in units of concentration.

Chain of mouse mitochondrial RNA polymerase (Polrmt), wild type (Q8BKF1 42-1207): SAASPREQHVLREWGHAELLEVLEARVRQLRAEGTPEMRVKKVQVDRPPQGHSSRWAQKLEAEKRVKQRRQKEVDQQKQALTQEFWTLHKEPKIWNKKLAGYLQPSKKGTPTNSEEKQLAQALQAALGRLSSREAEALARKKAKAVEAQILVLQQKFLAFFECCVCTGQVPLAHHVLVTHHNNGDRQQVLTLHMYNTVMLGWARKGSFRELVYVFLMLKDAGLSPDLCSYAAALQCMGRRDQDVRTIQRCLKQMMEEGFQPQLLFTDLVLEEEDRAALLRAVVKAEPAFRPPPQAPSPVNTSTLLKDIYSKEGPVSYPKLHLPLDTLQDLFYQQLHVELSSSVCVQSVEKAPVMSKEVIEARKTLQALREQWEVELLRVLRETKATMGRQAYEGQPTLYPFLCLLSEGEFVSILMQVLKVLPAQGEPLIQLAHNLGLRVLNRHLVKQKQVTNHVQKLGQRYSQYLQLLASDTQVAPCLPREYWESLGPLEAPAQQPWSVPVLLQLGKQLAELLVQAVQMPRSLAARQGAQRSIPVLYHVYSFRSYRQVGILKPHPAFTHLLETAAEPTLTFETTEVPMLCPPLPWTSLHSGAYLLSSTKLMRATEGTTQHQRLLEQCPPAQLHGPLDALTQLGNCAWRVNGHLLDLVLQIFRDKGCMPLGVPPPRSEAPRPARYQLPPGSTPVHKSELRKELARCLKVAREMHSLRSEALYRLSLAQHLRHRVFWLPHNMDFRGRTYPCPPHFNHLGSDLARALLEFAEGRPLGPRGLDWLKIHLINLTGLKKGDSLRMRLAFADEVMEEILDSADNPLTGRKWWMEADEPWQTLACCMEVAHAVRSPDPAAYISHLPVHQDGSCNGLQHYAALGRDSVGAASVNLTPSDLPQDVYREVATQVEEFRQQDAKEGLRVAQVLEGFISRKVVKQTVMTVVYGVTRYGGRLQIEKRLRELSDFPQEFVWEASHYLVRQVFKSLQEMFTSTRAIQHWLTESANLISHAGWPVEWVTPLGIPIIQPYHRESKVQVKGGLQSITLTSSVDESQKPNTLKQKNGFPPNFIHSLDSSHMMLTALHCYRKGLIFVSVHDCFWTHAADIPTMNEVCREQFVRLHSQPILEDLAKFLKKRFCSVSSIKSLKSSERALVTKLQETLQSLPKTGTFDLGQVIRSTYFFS
Chain of mouse Δ320-Polrmt (N-terminal truncation mutant lacking the amino-terminal 320 amino acids) (Q8BKF1 321-1207, stated change not applied): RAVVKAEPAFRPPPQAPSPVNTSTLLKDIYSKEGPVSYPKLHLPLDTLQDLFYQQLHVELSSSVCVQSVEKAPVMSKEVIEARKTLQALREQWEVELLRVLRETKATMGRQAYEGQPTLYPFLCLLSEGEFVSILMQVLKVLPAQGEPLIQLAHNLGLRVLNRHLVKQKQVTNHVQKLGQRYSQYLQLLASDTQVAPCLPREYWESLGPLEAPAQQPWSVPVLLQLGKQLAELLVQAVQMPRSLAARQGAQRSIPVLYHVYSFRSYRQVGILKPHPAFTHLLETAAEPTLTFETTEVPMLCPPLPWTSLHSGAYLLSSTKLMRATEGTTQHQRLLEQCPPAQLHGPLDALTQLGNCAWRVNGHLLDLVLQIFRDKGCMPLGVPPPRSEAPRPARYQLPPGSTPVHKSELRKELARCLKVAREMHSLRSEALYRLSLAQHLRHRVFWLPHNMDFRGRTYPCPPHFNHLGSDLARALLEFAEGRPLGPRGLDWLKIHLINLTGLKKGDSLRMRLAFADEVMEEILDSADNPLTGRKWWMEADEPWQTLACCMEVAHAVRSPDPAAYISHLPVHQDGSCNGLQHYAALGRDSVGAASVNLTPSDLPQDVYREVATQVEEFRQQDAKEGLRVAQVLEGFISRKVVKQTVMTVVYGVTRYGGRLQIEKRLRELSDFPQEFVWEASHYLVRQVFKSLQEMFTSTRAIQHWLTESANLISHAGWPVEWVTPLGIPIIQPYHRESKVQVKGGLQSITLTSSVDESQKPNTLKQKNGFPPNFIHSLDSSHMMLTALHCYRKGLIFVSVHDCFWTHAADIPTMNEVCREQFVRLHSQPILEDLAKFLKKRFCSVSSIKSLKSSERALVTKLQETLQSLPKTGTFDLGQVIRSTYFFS

B1: mouse mitochondrial transcription factor B2 (Tfb2m) (natural protein, UniProt Q3TL26 44-396, looked up)
chain: SDFNIEPLPDSDLEESSPWTSRNRSEPTRHIACKKAARNLVRDLLEHQNPSRQIILECNPGPGILTGALLKAGARVVAFESEKTFIPHLEPLQRNMDGELQVVHCDFFKMDPRYQEVVRPDVSSQAIFQNLGIKAVPWSAGVPIKVFGILPYKHERRILWKILFDLYSCESIYRYGRVELNMFVSEKEFRKLIATPKRPDLYQVMAVLWQVACDVKFLHMEPWSSFSVHTENGHLEKSKHGESVNLLKQNLYLVRMTPRRTLFTENLSPLNYDIFFHLVKHCFGKRNAPIIRHLRSLSTVDPINILRQIRKNPGDTAARMYPHDFKKLFETIEQSEDSVFKWIYDYCPEDMEF
modifications: amine-labelled with NT-647 dye
Consider B1, for which the dissociation constant Kd in experiment [1] was 105 ± 1.2 nM; in experiment [2] it was 49.4 ± 1.1 nM.

Source of the values: PMC3973307 (Nucleic Acids Research, 2014).
